Source: article PMC10786891, “Massively parallel profiling of RNA-targeting CRISPR-Cas13d”
Where a chain is given by its changes, count along the chain named. Names may count otherwise.

T1: EsCas13d, nuclease-dead (Eubacterium siraeum, UniProt B0MS50, R295A;H300A;R849A;H854A)
T1 sequence: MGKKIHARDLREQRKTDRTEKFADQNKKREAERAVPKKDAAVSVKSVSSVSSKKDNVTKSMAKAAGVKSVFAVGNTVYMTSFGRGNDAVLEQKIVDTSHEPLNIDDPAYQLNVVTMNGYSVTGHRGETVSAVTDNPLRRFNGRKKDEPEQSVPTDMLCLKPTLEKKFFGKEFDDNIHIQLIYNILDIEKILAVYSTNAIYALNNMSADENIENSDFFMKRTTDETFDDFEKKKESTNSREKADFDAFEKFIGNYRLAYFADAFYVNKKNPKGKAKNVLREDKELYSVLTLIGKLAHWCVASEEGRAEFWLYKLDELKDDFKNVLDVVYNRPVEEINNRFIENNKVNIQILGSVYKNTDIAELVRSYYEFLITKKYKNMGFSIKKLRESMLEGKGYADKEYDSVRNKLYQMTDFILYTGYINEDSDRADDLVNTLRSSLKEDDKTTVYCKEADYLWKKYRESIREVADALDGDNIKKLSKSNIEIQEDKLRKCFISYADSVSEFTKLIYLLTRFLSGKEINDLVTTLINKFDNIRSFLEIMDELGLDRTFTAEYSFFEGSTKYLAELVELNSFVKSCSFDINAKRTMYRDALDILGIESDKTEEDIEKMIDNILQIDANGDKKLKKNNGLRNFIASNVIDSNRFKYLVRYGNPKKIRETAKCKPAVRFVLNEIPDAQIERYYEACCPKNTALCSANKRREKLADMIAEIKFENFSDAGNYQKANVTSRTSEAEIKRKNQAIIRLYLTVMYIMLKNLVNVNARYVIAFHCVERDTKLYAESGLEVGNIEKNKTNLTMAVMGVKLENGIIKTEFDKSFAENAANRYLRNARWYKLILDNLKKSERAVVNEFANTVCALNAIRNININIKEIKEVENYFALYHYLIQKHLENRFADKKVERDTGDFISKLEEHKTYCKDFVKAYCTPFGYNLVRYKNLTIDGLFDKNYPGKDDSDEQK

B1: target 1 MT 5'PFS GAC 3'PFS AGU (mixed)
RNA 1: CACCCGUGCAAAAAUGCAGGGGUCUAAAACUGAGCGGAUAACCUCUCUAUGG
RNA 2: GGGAAUGGAUCCACAUCUACGAAUUCGACCCAUAGAGAGGUUAUCCGCUCAAGUAGAUCGGAAGAGCACACGU
B2: target 1 MT 5'PFS UUG 3'PFS CAA (mixed)
RNA 1: B1 RNA 1
RNA 2: B1 RNA 2 with G27U, A28U, C29G, A52C, G53A, U54A
B3: target 1 MT 5'PFS CCU 3'PFS UAU (mixed)
RNA 1: B1 RNA 1
RNA 2: B1 RNA 2 with G27C, A28C, C29U, A52U, G53A
B4: target 1 C4U,U8G (mixed)
RNA 1: B1 RNA 1
RNA 2: B1 RNA 2 with A28U, C29A, U44G, C48U, A52C, G53C, U54G
B5: target 1 MT 5'PFS GUC 3'PFS CUU (mixed)
RNA 1: B1 RNA 1
RNA 2: B1 RNA 2 with A28U, A52C, G53U
B6: target 1 MT 5'PFS GUA 3'PFS AGU (mixed)
RNA 1: B1 RNA 1
RNA 2: B1 RNA 2 with A28U, C29A
B7: target 1 MT 5'PFS GUA 3'PFS CGG (mixed)
RNA 1: B1 RNA 1
RNA 2: B1 RNA 2 with A28U, C29A, A52C, U54G
B8: target 1 G15C,A16C (mixed)
RNA 1: B1 RNA 1
RNA 2: B1 RNA 2 with A28U, C29A, A36C, G37C, A52C, G53C, U54G
B9: target 1 MT 5'PFS CUC 3'PFS UCA (mixed)
RNA 1: B1 RNA 1
RNA 2: B1 RNA 2 with G27C, A28U, A52U, G53C, U54A
B10: target 1 MT 5'PFS GUA 3'PFS CGA (mixed)
RNA 1: B1 RNA 1
RNA 2: B1 RNA 2 with A28U, C29A, A52C, U54A
B11: target 1 MT 5'PFS CCU 3'PFS UAG (mixed)
RNA 1: B1 RNA 1
RNA 2: B1 RNA 2 with G27C, A28C, C29U, A52U, G53A, U54G
B12: target 1 MT 5'PFS CCG 3'PFS AUA (mixed)
RNA 1: B1 RNA 1
RNA 2: B1 RNA 2 with G27C, A28C, C29G, G53U, U54A
B13: target 1 MT 5'PFS GGC 3'PFS UAG (mixed)
RNA 1: B1 RNA 1
RNA 2: B1 RNA 2 with A28G, A52U, G53A, U54G
B14: target 1 MT 5'PFS GUG 3'PFS GGG (mixed)
RNA 1: B1 RNA 1
RNA 2: B1 RNA 2 with A28U, C29G, A52G, U54G
B15: target 1 MT 5'PFS GAA 3'PFS AUC (mixed)
RNA 1: B1 RNA 1
RNA 2: B1 RNA 2 with C29A, G53U, U54C
B16: target 1 MT 5'PFS GUA 3'PFS CGU (mixed)
RNA 1: B1 RNA 1
RNA 2: B1 RNA 2 with A28U, C29A, A52C
B17: target 1 complement block 6-12 (mixed)
RNA 1: B1 RNA 1
RNA 2: GGGAAUGGAUCCACAUCUACGAAUUCGUACCAUAGAGAGCAAUAGGGCUCACCGAGAUCGGAAGAGCACACGU
B18: target 1 MT 5'PFS GAA 3'PFS AUU (mixed)
RNA 1: B1 RNA 1
RNA 2: B1 RNA 2 with C29A, G53U
B19: target 1 MT 5'PFS CUU 3'PFS ACA (mixed)
RNA 1: B1 RNA 1
RNA 2: B1 RNA 2 with G27C, A28U, C29U, G53C, U54A
B20: target 1 MT 5'PFS GGC 3'PFS UAC (mixed)
RNA 1: B1 RNA 1
RNA 2: B1 RNA 2 with A28G, A52U, G53A, U54C
B21: target 1 MT 5'PFS GGG 3'PFS AAC (mixed)
RNA 1: B1 RNA 1
RNA 2: B1 RNA 2 with A28G, C29G, G53A, U54C
B22: target 1 MT 5'PFS GUG 3'PFS GGC (mixed)
RNA 1: B1 RNA 1
RNA 2: B1 RNA 2 with A28U, C29G, A52G, U54C
B23: target 1 MT 5'PFS UGU 3'PFS CGA (mixed)
RNA 1: B1 RNA 1
RNA 2: B1 RNA 2 with G27U, A28G, C29U, A52C, U54A
B24: target 1 MT 5'PFS AGA 3'PFS UGA (mixed)
RNA 1: B1 RNA 1
RNA 2: B1 RNA 2 with G27A, A28G, C29A, A52U, U54A
B25: target 1 MT 5'PFS AGA 3'PFS UGC (mixed)
RNA 1: B1 RNA 1
RNA 2: B1 RNA 2 with G27A, A28G, C29A, A52U, U54C
B26: target 1 MT 5'PFS UUG 3'PFS CAU (mixed)
RNA 1: B1 RNA 1
RNA 2: B1 RNA 2 with G27U, A28U, C29G, A52C, G53A
B27: target 1 MT 5'PFS CCU 3'PFS UAC (mixed)
RNA 1: B1 RNA 1
RNA 2: B1 RNA 2 with G27C, A28C, C29U, A52U, G53A, U54C
B28: target 1 MT 5'PFS AAU 3'PFS UAG (mixed)
RNA 1: B1 RNA 1
RNA 2: B1 RNA 2 with G27A, C29U, A52U, G53A, U54G
B29: target 1 MT 5'PFS GUA 3'PFS AGA (mixed)
RNA 1: B1 RNA 1
RNA 2: B1 RNA 2 with A28U, C29A, U54A
B30: target 1 MT 5'PFS UUG 3'PFS CAC (mixed)
RNA 1: B1 RNA 1
RNA 2: B1 RNA 2 with G27U, A28U, C29G, A52C, G53A, U54C
B31: target 1 MT 5'PFS AAU 3'PFS UAU (mixed)
RNA 1: B1 RNA 1
RNA 2: B1 RNA 2 with G27A, C29U, A52U, G53A
B32: target 1 MT 5'PFS GGC 3'PFS UAA (mixed)
RNA 1: B1 RNA 1
RNA 2: B1 RNA 2 with A28G, A52U, G53A, U54A
B33: target 1 MT 5'PFS CUC 3'PFS UCG (mixed)
RNA 1: B1 RNA 1
RNA 2: B1 RNA 2 with G27C, A28U, A52U, G53C, U54G
B34: target 1 MT 5'PFS GUA 3'PFS AGG (mixed)
RNA 1: B1 RNA 1
RNA 2: B1 RNA 2 with A28U, C29A, U54G
B35: target 1 MT 5'PFS CUU 3'PFS CAC (mixed)
RNA 1: B1 RNA 1
RNA 2: B1 RNA 2 with G27C, A28U, C29U, A52C, G53A, U54C
B36: target 1 MT 5'PFS AGA 3'PFS UGU (mixed)
RNA 1: B1 RNA 1
RNA 2: B1 RNA 2 with G27A, A28G, C29A, A52U
B37: target 1 MT 5'PFS GUA 3'PFS CGC (mixed)
RNA 1: B1 RNA 1
RNA 2: B1 RNA 2 with A28U, C29A, A52C, U54C
B38: target 1 MT 5'PFS GGC 3'PFS UAU (mixed)
RNA 1: B1 RNA 1
RNA 2: B1 RNA 2 with A28G, A52U, G53A
B39: target 1 MT 5'PFS GUA 3'PFS AGC (mixed)
RNA 1: B1 RNA 1
RNA 2: B1 RNA 2 with A28U, C29A, U54C
B40: target 1 MT 5'PFS CAA 3'PFS AGU (mixed)
RNA 1: B1 RNA 1
RNA 2: B1 RNA 2 with G27C, C29A
B41: target 1 MT 5'PFS GUG 3'PFS GGU (mixed)
RNA 1: B1 RNA 1
RNA 2: B1 RNA 2 with A28U, C29G, A52G

Each binder was assayed against T1, EsCas13d, nuclease-dead (assay: crRNA (strand 1, pre-loaded); Mg2+; 40 mM Tris-HCl pH 7.5, 150 mM NaCl, 6 mM MgCl2, 1 mM DTT, 0.1% Tween-20, 0.2 mg/ml BSA; 25 C; 10 min per concentration, then washed). Conditions: tags: His6-TwinStrep-SUMO cleaved; N-terminal SNAP kept (SNAP-Surface 488); label: 3' end held by stalled T7 RNA polymerase.

First: B1
Second: B2
The Kd of the first is 1.5-fold lower: 35.5 ± 10.5 nM for the first, roughly 55 nM for the second. The first binds more tightly here.

B3 and B4 are within 1.5-fold of each other in Kd: roughly 15 nM for the first, 14.1 ± 0.8 nM for the second.

B5 and B6 are within 1.5-fold of each other in Kd: 13.8 ± 2.6 nM for the first, 9.9 ± 0.8 nM for the second.

Going from B7 to B8, the Kd rises from 15.2 ± 1.15 nM to roughly 90 nM (5.9-fold). The first binds more tightly here.

B9 and B10 are within 1.5-fold of each other in Kd: roughly 26 nM for the first, 17.8 ± 2.55 nM for the second.

Going from B11 to B12, the Kd falls from 28 ± 11 nM to 5.1 ± 1.45 nM (5.5-fold).

First: B13
Second: B14
The Kd of the first is 2.5-fold lower: 13.4 ± 1.8 nM for the first, 32.9 ± 2.9 nM for the second.

First: B15
Second: B16
The Kd of the first is 7.6-fold higher: 43 ± 15 nM for the first, 5.66 ± 0.48 nM for the second.

B17 and B18 are within error of each other in Kd: 16.7 ± 1 nM for the first, 24.5 ± 8.5 nM for the second.

Compared with B19, B20 is 3.4-fold lower in Kd: roughly 65.5 nM for the first, 19 ± 5 nM for the second.

Compared with B21, B22 is 2.5-fold lower in Kd: 35.5 ± 8.5 nM for the first, 14 ± 2.25 nM for the second.

B23 and B24 are within error of each other in Kd: 60 ± 28.5 nM for the first, 90 ± 40 nM for the second.

B25 and B26 are within error of each other in Kd: roughly 53.5 nM for the first, 41 ± 13.5 nM for the second.

First: B27
Second: B28
The Kd of the first is 3.1-fold lower: 13.4 ± 2.7 nM for the first, 41.5 ± 20 nM for the second. The first binds more tightly here.

First: B29
Second: B30
The Kd of the first is 6.7-fold lower: 12.7 ± 0.8 nM for the first, roughly 85 nM for the second.

First: B31
Second: B32
The Kd of the first is 3.4-fold higher: 72 ± 27 nM for the first, 20.9 ± 3.75 nM for the second.

Going from B33 to B34, the Kd falls from roughly 85 nM to 22.9 ± 1.4 nM (3.7-fold). The second binds more tightly here.

B35 and B36 are within error of each other in Kd: 47 ± 19 nM for the first, 110 ± 50 nM for the second.

B37 and B38 are within error of each other in Kd: 11.2 ± 1.15 nM for the first, 16 ± 4 nM for the second.

First: B39
Second: B40
The Kd of the first is 8.3-fold lower: 6.27 ± 0.515 nM for the first, roughly 52 nM for the second. The first binds more tightly here.

B41 gave a Kd of 25.6 ± 2.7 nM.
